This note sets out measurements from patent publication US20050054041.

First the molecules themselves.
B1: KinI-3 construct D143L546 (protein)
chain: DDSQYHTKTGILNATAGDSYVQTEISTSLFSPNYLSAILGDCDIPIIQRISHVSGYNYGIPHSCIRQNTSEKQNPWTEMEKIRVCVRKRPLGMREVRRGEINIITVEDKETLLVHEKKEAVDLTQYILQHVFYFDEVFGEACTNQDVYMKTTHPLIQHIFNGGNATCFAYGQTGAGKTYTMIGTHENPGLYALAAKDIFRQLEVSQPRKHLFVWISFYEIYCGQLYDLLNRRKRLFAREDSKHMVQIVGLQELQVDSVELLLEVILKGSKERSTGATGVNADSSRSHAVIQIQIKDSAKRTFGRISFIDLAGSERAADARDSDRQTKMEGAEINQSLLALKECIRALDQEHTHTPFRQSKLTQVLKDSFIGNAKTCMIANISPSHVATEHTLNTLRYADRVKEL
B2: KinI-3 construct E213/L546 (protein)
chain: MEKQNPWTEMEKIRVCVRKRPLGMREVRRGEINIITVEDKETLLVHEKKEAVDLTQYILQHVFYFDEVFGEACTNQDVYMKTTHPLIQHIFNGGNATCFAYGQTGAGKTYTMIGTHENPGLYALAAKDIFRQLEVSQPRKHLFVWISFYEIYCGQLYDLLNRRKRLFAREDSKHMVQIVGLQELQVDSVELLLEVILKGSKERSTGATGVNADSSRSHAVIQIQIKDSAKRTFGRISFIDLAGSERAADARDSDRQTKMEGAEINQSLLALKECIRALDQEHTHTPFRQSKLTQVLKDSFIGNAKTCMIANISPSHVATEHTLNTLRYADRVKELLEHHHHHH
B3: KinI-3 construct E213/S566 (protein)
chain: MEKQNPWTEMEKIRVCVRKRPLGMREVRRGEINIITVEDKETLLVHEKKEAVDLTQYILQHVFYFDEVFGEACTNQDVYMKTTHPLIQHIFNGGNATCFAYGQTGAGKTYTMIGTHENPGLYALAAKDIFRQLEVSQPRKHLFVWISFYEIYCGQLYDLLNRRKRLFAREDSKHMVQIVGLQELQVDSVELLLEVILKGSKERSTGATGVNADSSRSHAVIQIQIKDSAKRTFGRISFIDLAGSERAADARDSDRQTKMEGAEINQSLLALKECIRALDQEHTHTPFRQSKLTQVLKDSFIGNAKTCMIANISPSHVATEHTLNTLRYADRVKELKKGIKCCTSVTSRNRTSGNSLEHHHHHH
B4: KinI-3 construct V195S566 (protein)
chain: MVSGYNYGIPHSCIRQNTSEKQNPWTEMEKIRVCVRKRPLGMREVRRGEINIITVEDKETLLVHEKKEAVDLTQYILQHVFYFDEVFGEACTNQDVYMKTTHPLIQHIFNGGNATCFAYGQTGAGKTYTMIGTHENPGLYALAAKDIFRQLEVSQPRKHLFVWISFYEIYCGQLYDLLNRRKRLFAREDSKHMVQIVGLQELQVDSVELLLEVILKGSKERSTGATGVNADSSRSHAVIQIQIKDSAKRTFGRISFIDLAGSERAADARDSDRQTKMEGAEINQSLLALKECIRALDQEHTHTPFRQSKLTQVLKDSFIGNAKTCMIANISPSHVATEHTLNTLRYADRVKELKKGIKCCTSVTSRNRTSGNSLEHHHHHH
B5: KinI-3 construct V195L546 (protein)
chain: VSGYNYGIPHSCIRQNTSEKQNPWTEMEKIRVCVRKRPLGMREVRRGEINIITVEDKETLLVHEKKEAVDLTQYILQHVFYFDEVFGEACTNQDVYMKTTHPLIQHIFNGGNATCFAYGQTGAGKTYTMIGTHENPGLYALAAKDIFRQLEVSQPRKHLFVWISFYEIYCGQLYDLLNRRKRLFAREDSKHMVQIVGLQELQVDSVELLLEVILKGSKERSTGATGVNADSSRSHAVIQIQIKDSAKRTFGRISFIDLAGSERAADARDSDRQTKMEGAEINQSLLALKECIRALDQEHTHTPFRQSKLTQVLKDSFIGNAKTCMIANISPSHVATEHTLNTLRYADRVKEL
B6: KinI-3 construct D183L546 (protein)
chain: MDCDIPIIQRISHVSGYNYGIPHSCIRQNTSEKQNPWTEMEKIRVCVRKRPLGMREVRRGEINIITVEDKETLLVHEKKEAVDLTQYILQHVFYFDEVFGEACTNQDVYMKTTHPLIQHIFNGGNATCFAYGQTGAGKTYTMIGTHENPGLYALAAKDIFRQLEVSQPRKHLFVWISFYEIYCGQLYDLLNRRKRLFAREDSKHMVQIVGLQELQVDSVELLLEVILKGSKERSTGATGVNADSSRSHAVIQIQIKDSAKRTFGRISFIDLAGSERAADARDSDRQTKMEGAEINQSLLALKECIRALDQEHTHTPFRQSKLTQVLKDSFIGNAKTCMIANISPSHVATEHTLNTLRYADRVKELLEHHHHHH
B7: KinI-3 construct E233F541 (protein)
chain: LGMREVRRGEINIITVEDKETLLVHEKKEAVDLTQYILQHVFYFDEVFGEACTNQDVYMKTTHPLIQHIFNGGNATCFAYGQTGAGKTYTMIGTHENPGLYALAAKDIFRQLEVSQPRKHLFVWISFYEIYCGQLYDLLNRRKRLFAREDSKHMVQIVGLQELQVDSVELLLEVILKGSKERSTGATGVNADSSRSHAVIQIQIKDSAKRTFGRISFIDLAGSERAADARDSDRQTKMEGAEINQSLLALKECIRALDQEHTHTPFRQSKLTQVLKDSFIGNAKTCMIANISPSHVATEHTLNTLRYAD
B8: KinI-3 construct E166L546 (protein)
chain: EISTSLFSPNYLSAILGDCDIPIIQRISHVSGYNYGIPHSCIRQNTSEKQNPWTEMEKIRVCVRKRPLGMREVRRGEINIITVEDKETLLVHEKKEAVDLTQYILQHVFYFDEVFGEACTNQDVYMKTTHPLIQHIFNGGNATCFAYGQTGAGKTYTMIGTHENPGLYALAAKDIFRQLEVSQPRKHLFVWISFYEIYCGQLYDLLNRRKRLFAREDSKHMVQIVGLQELQVDSVELLLEVILKGSKERSTGATGVNADSSRSHAVIQIQIKDSAKRTFGRISFIDLAGSERAADARDSDRQTKMEGAEINQSLLALKECIRALDQEHTHTPFRQSKLTQVLKDSFIGNAKTCMIANISPSHVATEHTLNTLRYADRVKEL

The first series has as its target microtubules.
B1: the MT depolymerization entry is listed as “no”.
Turning to B2, the MT depolymerization entry is given as “yes”.
For the molecule B3, the MT depolymerization entry is recorded as “weak”.
Same read-out and setting: the result for B4 reads “yes”.
On the same count and under the same terms, the result for B5 reads “no”; that for B6, “yes”.
Still for that read-out and setting: the result for B7 reads “no”.
With B8, the MT depolymerization entry is on record as “no”.

A further series deals with microtubules. The source holds these as a separate data set.
Consider “KinI-3 protein, bacterially expressed and purified (construct not stated)”, for which the “microtubule depolymerization (tubulin in supernatant after centrifugation, SDS PAGE), with ATP” value is “Track 3 shows an increase in tubulin in the supernatant that indicates depolymerization in the presence of ATP” and the “microtubule depolymerization (tubulin in supernatant after centrifugation, SDS PAGE), without hydrolysable ATP” value is “No depolymerization was observed in the absence of ATP (track 4), in the presence of AMP-PNP (track 5) or in the presence of ADP (track 6)”.
